{"source": "patent US9823254B2", "about": "“Reversible chemoenzymatic labeling of native and fusion carrier protein motifs” (The Regents of the University of California, priority 2012, dated 2017)", "type_in_all_cases": "biochemical", "key": {"[1]": {"system": "G. fujikuroi Pks4", "experiment": "AcpH qualitative CP activity, gel-based, crypto-CP", "settings": "PKS; crypto-CP (coumarin-PPant), overnight, 37° C., 1 μM AcpH", "quoted_text": "Unless otherwise noted, all coumarin-PPant labeling proceeded as follows: apo-carrier protein or peptide at 50-200 μM were labeled in 50 mM Na-HEPES pH 7.5, 10 mM MgCl2, 8 mM ATP, 0.1 μM MBP-CoaA/D/E, 0.1 μM native Sfp, and 1.1 equivalents of coumarin-pantetheine at 37° C. overnight. Crypto-protein samples were repurified using standard IMAC techniques in pH 8 lysis buffer with Ni-NTA resin, and spin-concentrated/buffer exchanged to remove imidazole and concentrate with 0.5 mL 3 kDa MWCO cellulose filters. Crypto-peptide samples were purified with HPLC, lyophilized, and redissolved in 50 mM TrisCl pH 8.0 prior to analysis.\nFollowing AcpH treatment, an equal volume of 2×SDS-PAGE loading dye was added to crypto-carrier proteins samples and heated 5 min at 90° C., and run on 12% or 15% SDS-PAGE. Gels were fixed in 50/40/10% water/methanol/acetic acid for 30 minutes, and washed with water three times before UV imaging. Holo-carrier protein reactions were analyzed with Urea-PAGE as previously described.^6 All protein gels were Coomassie stained for evaluating total protein. Crypto-peptides were evaluated on Urea-PAGE, and were imaged immediately after running with no gel fixing."}, "[2]": {"target": "T1, L majuscula JamC (Moorena producens, UniProt Q6E7K7)", "T1 construct": "made in house", "T1 sequence (Q6E7K7 whole entry)": "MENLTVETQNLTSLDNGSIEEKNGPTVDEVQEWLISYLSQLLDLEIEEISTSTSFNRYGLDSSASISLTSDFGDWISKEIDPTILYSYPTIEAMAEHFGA", "experiment": "AcpH qualitative CP activity, gel-based, crypto-CP", "settings": "PKS; crypto-CP (coumarin-PPant), overnight, 37° C., 1 μM AcpH", "quoted_text": "Unless otherwise noted, all coumarin-PPant labeling proceeded as follows: apo-carrier protein or peptide at 50-200 μM were labeled in 50 mM Na-HEPES pH 7.5, 10 mM MgCl2, 8 mM ATP, 0.1 μM MBP-CoaA/D/E, 0.1 μM native Sfp, and 1.1 equivalents of coumarin-pantetheine at 37° C. overnight. Crypto-protein samples were repurified using standard IMAC techniques in pH 8 lysis buffer with Ni-NTA resin, and spin-concentrated/buffer exchanged to remove imidazole and concentrate with 0.5 mL 3 kDa MWCO cellulose filters.\nFollowing AcpH treatment, an equal volume of 2×SDS-PAGE loading dye was added to crypto-carrier proteins samples and heated 5 min at 90° C., and run on 12% or 15% SDS-PAGE. Gels were fixed in 50/40/10% water/methanol/acetic acid for 30 minutes, and washed with water three times before UV imaging. Holo-carrier protein reactions were analyzed with Urea-PAGE as previously described.^6 All protein gels were Coomassie stained for evaluating total protein."}, "[3]": {"target": "T2, crypto-FITC-YbbR (3) (Bacillus subtilis, UniProt O34659)", "T2 construct": "made in house; host or cells: enzymatic labelling of FITC-ybbR peptide with Sfp and rhodamine-CoA", "T2 sequence (O34659 whole entry, looked up)": "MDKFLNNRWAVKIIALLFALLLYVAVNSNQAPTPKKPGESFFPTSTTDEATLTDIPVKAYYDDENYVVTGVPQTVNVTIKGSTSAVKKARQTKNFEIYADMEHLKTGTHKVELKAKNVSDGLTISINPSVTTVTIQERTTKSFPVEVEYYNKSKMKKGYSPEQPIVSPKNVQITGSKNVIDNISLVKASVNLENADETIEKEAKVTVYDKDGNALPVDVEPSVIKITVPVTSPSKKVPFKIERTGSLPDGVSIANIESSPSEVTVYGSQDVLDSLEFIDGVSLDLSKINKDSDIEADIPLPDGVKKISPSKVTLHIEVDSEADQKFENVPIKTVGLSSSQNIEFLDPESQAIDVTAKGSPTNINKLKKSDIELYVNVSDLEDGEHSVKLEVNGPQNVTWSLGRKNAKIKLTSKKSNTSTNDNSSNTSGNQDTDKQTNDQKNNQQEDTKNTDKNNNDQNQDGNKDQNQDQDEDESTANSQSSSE", "experiment": "FRET-quench microwell AcpH kinetics", "settings": "37° C., FRET-quench microwell plate assay, [AcpH] 1 μm", "description": "Preparation of rhodamine-labeled FITC-ybbR proceeded via reaction of 200 μM FITC-ybbR with 200 μM rhodamine WT-CoA synthesized as described previously^33 with 1 μM Sfp in 50 mM HEPES pH 7.5 and 10 mM MgCl2 for 2 hours at 37° C.\nRhodamine-labeled FITC-Ybbr as well as standard 1:1 apo-FITC-ybbR:rhodamine-CoA was subjected to an 11-point serial dilution in 50 mM TrisCl pH 8.0 to achieve final concentrations of 400-0.4 μM. […] Total reaction volumes were 50 μL and utilized a 96-well Costar 3694 plate (Corning, Lowell, Mass.). Following mixing, reactions were centrifuged for 2 minutes at 1500 rpm, and incubated at 37° C. over 4 hours in a HTS 7000 plus Bioassay Reader (Perkin Elmer, Waltham, Mass.) in kinetic mode. Comparison of enzyme reactions to buffer blank and 1:1 apo-FITC-ybbR:rhodamine-CoA standard allowed calculation of product formation and determination of Michaelis-Menten kinetics using GraphPad Prism."}}, "data": [{"molecule": "PaAcpH: acyl carrier protein hydrolase (AcpH) from P. aeruginosa PAO1, NP13 253043.1 (protein) MNYLAHLHLGGPQPAQLLGSLYGDFVKGRLQGQWPDEIERAIQLHRRIDAFTDSHPLVHAAKRRFPLERRRFAGVLLDVFFDHCLARDWNDYADEPLPQFVERVYGTLRTASPLPERLARIAPRMAAQDWLGSYREFAVLREVLGGMSRRLSRPHLLDGSWEELAQRYDDLSADFRAFYPQLQAFALSQR", "values": [{"measurement": "AcpH qualitative CP activity", "setting": "[1]", "value": "no"}, {"measurement": "AcpH qualitative CP activity", "setting": "[2]", "value": "YES"}, {"measurement": "Km", "setting": "[3]", "value": 177, "unit": "µM"}, {"measurement": "Vmax", "setting": "[3]", "value": "0.008 ± 0.016", "unit": "min⁻¹"}, {"measurement": "kcat", "setting": "[3]", "value": "0.00013 ± 0.000267", "unit": "s⁻¹"}]}]}
